From paper PMC10998906 come the findings set out here.

Assay [1] addresses HA GCN4 (NL03 HA fused to a GCN4 trimerization domain) (influenza A virus A/Netherlands/213/2003(H3N2)). As to the kind of experiment: SEC.
For assay [2] the target is unchanged. Briefly: negative-stain EM.

Take “HA GCN4 (NL03 HA fused to a GCN4 trimerization domain) (domain or fragment)”: the stoichiometry N in assay [1] and in assay [2] was 3 each time.
